We go through 2 molecules from publication PMC3524126, “Live-Cell Visualization of Intracellular Interaction between a Nuclear Migration Protein (hNUDC) and the Thrombopoietin Receptor (Mpl)” (PLoS ONE, 2012).

The assay deals with T1, Flag-Mpl-VN (full-length thrombopoietin receptor Mpl fused to the N-terminal half of Venus) (UniProt P40238 26-635).
T1 construct: Inserted between Flag and VN in pBiFC-VN173; also called pFlag-Mpl-VN; source: Cos-1, transiently transfected, in living cells; not shown: Flag, N-terminal, kept; Venus N-terminal fragment 1-173 (VN), C-terminal, kept
T1 sequence (looked up): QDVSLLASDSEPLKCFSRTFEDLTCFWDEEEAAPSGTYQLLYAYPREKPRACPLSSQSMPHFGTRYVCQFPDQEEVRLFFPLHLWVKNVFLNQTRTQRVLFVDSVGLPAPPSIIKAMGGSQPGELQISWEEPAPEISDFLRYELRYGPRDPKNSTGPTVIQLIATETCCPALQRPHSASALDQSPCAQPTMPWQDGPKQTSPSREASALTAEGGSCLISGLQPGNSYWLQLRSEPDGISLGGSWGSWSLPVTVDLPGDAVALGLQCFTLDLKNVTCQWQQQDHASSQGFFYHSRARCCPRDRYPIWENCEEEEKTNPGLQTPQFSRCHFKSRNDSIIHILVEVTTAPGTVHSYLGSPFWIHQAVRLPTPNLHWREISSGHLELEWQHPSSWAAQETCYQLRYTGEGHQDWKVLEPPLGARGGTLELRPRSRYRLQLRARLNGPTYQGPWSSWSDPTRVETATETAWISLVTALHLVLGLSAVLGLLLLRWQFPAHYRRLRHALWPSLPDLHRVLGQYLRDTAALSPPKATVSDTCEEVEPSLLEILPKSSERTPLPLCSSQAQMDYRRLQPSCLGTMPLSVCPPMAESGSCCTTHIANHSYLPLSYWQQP
Kind of assay: split reporter (BiFC, NanoBiT); Venus BiFC read by flow cytometry of Cos-1 cells, 12 h after transfection; 1x10^4 cells, Venus-positive cells against untransfected and empty-vector cells. The conditions noted are these: partners not purified.

B1: HA-hNUDC(1-159)-VC (N-terminal half of hNUDC fused to the C-terminal half of Venus) (domain or fragment)
chain: not shown
notes: human NUDC (hNUDC), N-terminal half, residues 1-159; Cloned between HA and VC in pBiFC-VC155; also called pHA-hNUDC(1-159)-VC; source: Cos-1, transiently transfected, in living cells; not shown: HA, N-terminal, kept; Venus C-terminal fragment 155-238 (VC), C-terminal, kept
Turning to B1, the “fold increase of the Venus signal over untransfected Cos-1 cells” value was found to be 16.2 fold.

B2: HA-hNUDC-VC (full-length human NUDC fused to the C-terminal half of Venus) (natural protein)
chain: not shown
notes: Cloned between HA and VC in pBiFC-VC155; also called pHA-hNUDC-VC; phNUDC-VC; source: Cos-1, transiently transfected, in living cells; not shown: HA, N-terminal, kept; Venus C-terminal fragment 155-238 (VC), C-terminal, kept
With B2, the “fold increase of the Venus signal over untransfected Cos-1 cells” value was 16.7 fold.
